Reference: patent US11419921B2, “Methods of treating neurological disorders” (EnClear Therapies, Inc., priority 2018, dated 2022)

Tested on: (GR)10
Experiment: Cleavage of (GR)10 by enzymes in solution (PBS with CaCl2 and MgCl2), LC/MS of GR repeats
Type: biochemical
Conditions: for (GR)1 concentration / (GR)2 concentration / (GR)3 concentration / (GR)4 concentration / (GR)5 concentration / (GR)6 concentration / (GR)8 concentration / (GR)10 concentration: (GR)10 50 μM; for (GR)1 / (GR)2 / (GR)3 / (GR)4 / (GR)5 / (GR)6 / (GR)8 / (GR)10: PBS, normalized
Procedure: • (GR)10 dipeptide (also (GR)8, (GR)6, (GR)4, (GR)2) were synthetized by solid-phase synthesis by CanPeptide; All peptides are uncapped and supplied lyophilized with TFA as counter ions. Purity was always above 95%. • Buffer: PBS buffer containing CaCl2 and MgCl2. • Stock solution of enzyme (e.g., 10 mg/mL) (prepared per manufacturer instructions) in PBS. Activators added as necessary. • Working solution of protein of the desired concentration (e.g., 100 μg/mL) prepared immediately before use by diluting the stock solution (e.g., 5 μL of 10 mg/mL stock solution) in PBS buffer (e.g., in 495 μL of PBS). Exemplary Procedure Using 50 μM Concentrations of (GR)10
25 μL of a 100 μM solution of (GR)10 was added to each well of a 96-well plate. 25 μL of a solution of enzyme (two times the desired final enzyme concentration) was added, and the plates were incubated at room temperature. At the specified time points (5 minutes, 10 minutes, 30 minutes, 60 minutes, and 180 minutes) 2.5 μL of a 10% TFA solution were added to stop the reaction. For the time 0 min well, the TFA was added to the well before addition of the enzyme. After last time point, all samples were further diluted with 150 μL of dilution solution. The quenched reaction mixtures were analyzed by LC/MS to determine the concentration of GR repeats of different lengths.
The chromatography and mass spectrometry conditions utilized are shown in Table 2 and Table 3, respectively.

(GR)1 concentration (enzyme 2.5 μg/mL, 0 min): BLQ
(GR)2 concentration (enzyme 2.5 μg/mL, 0 min): BLQ
(GR)3 concentration (enzyme 2.5 μg/mL, 0 min): BLQ
(GR)4 concentration (enzyme 2.5 μg/mL, 0 min): BLQ
(GR)5 concentration (enzyme 2.5 μg/mL, 0 min): BLQ
(GR)6 concentration (enzyme 2.5 μg/mL, 0 min): BLQ
(GR)8 concentration (enzyme 2.5 μg/mL, 0 min): 0.5 µM
(GR)10 concentration (enzyme 2.5 μg/mL, 0 min): 52.8 µM
(GR)1 concentration (enzyme 2.5 μg/mL, 5 min): 114.3 µM
(GR)2 concentration (enzyme 2.5 μg/mL, 5 min): 157.8 µM
(GR)3 concentration (enzyme 2.5 μg/mL, 5 min): 0.1 µM
(GR)4 concentration (enzyme 2.5 μg/mL, 5 min): BLQ
(GR)5 concentration (enzyme 2.5 μg/mL, 5 min): BLQ
(GR)6 concentration (enzyme 2.5 μg/mL, 5 min): BLQ
(GR)8 concentration (enzyme 2.5 μg/mL, 5 min): 0.1 µM
(GR)10 concentration (enzyme 2.5 μg/mL, 5 min): 2.2 µM
(GR)1 concentration (enzyme 2.5 μg/mL, 10 min): 124.7 µM
(GR)2 concentration (enzyme 2.5 μg/mL, 10 min): 167.7 µM
(GR)3 concentration (enzyme 2.5 μg/mL, 10 min): 0.1 µM
(GR)4 concentration (enzyme 2.5 μg/mL, 10 min): BLQ
(GR)5 concentration (enzyme 2.5 μg/mL, 10 min): BLQ
(GR)6 concentration (enzyme 2.5 μg/mL, 10 min): BLQ
(GR)8 concentration (enzyme 2.5 μg/mL, 10 min): BLQ
(GR)10 concentration (enzyme 2.5 μg/mL, 10 min): BLQ
(GR)1 concentration (enzyme 2.5 μg/mL, 30 min): 137.7 µM
(GR)2 concentration (enzyme 2.5 μg/mL, 30 min): 144.9 µM
(GR)3 concentration (enzyme 2.5 μg/mL, 30 min): BLQ
(GR)4 concentration (enzyme 2.5 μg/mL, 30 min): BLQ
(GR)5 concentration (enzyme 2.5 μg/mL, 30 min): BLQ
(GR)6 concentration (enzyme 2.5 μg/mL, 30 min): BLQ
(GR)8 concentration (enzyme 2.5 μg/mL, 30 min): BLQ
(GR)10 concentration (enzyme 2.5 μg/mL, 30 min): BLQ
(GR)1 concentration (enzyme 2.5 μg/mL, 60 min): 163.2 µM
(GR)2 concentration (enzyme 2.5 μg/mL, 60 min): 134.1 µM
(GR)3 concentration (enzyme 2.5 μg/mL, 60 min): BLQ
(GR)4 concentration (enzyme 2.5 μg/mL, 60 min): BLQ
(GR)5 concentration (enzyme 2.5 μg/mL, 60 min): BLQ
(GR)6 concentration (enzyme 2.5 μg/mL, 60 min): BLQ
(GR)8 concentration (enzyme 2.5 μg/mL, 60 min): BLQ
(GR)10 concentration (enzyme 2.5 μg/mL, 60 min): BLQ
(GR)1 concentration (enzyme 2.5 μg/mL, 120 min): 215.2 µM
(GR)2 concentration (enzyme 2.5 μg/mL, 120 min): 107.7 µM
(GR)3 concentration (enzyme 2.5 μg/mL, 120 min): BLQ
(GR)4 concentration (enzyme 2.5 μg/mL, 120 min): BLQ
(GR)5 concentration (enzyme 2.5 μg/mL, 120 min): BLQ
(GR)6 concentration (enzyme 2.5 μg/mL, 120 min): BLQ
(GR)8 concentration (enzyme 2.5 μg/mL, 120 min): BLQ
(GR)10 concentration (enzyme 2.5 μg/mL, 120 min): BLQ
(GR)1 concentration (enzyme 10 μg/mL, 0 min): 0.1 µM
(GR)2 concentration (enzyme 10 μg/mL, 0 min): BLQ
(GR)3 concentration (enzyme 10 μg/mL, 0 min): BLQ
(GR)4 concentration (enzyme 10 μg/mL, 0 min): BLQ
(GR)5 concentration (enzyme 10 μg/mL, 0 min): BLQ
(GR)6 concentration (enzyme 10 μg/mL, 0 min): BLQ
(GR)8 concentration (enzyme 10 μg/mL, 0 min): 0.5 µM
(GR)10 concentration (enzyme 10 μg/mL, 0 min): 48.9 µM
(GR)1 concentration (enzyme 10 μg/mL, 5 min): 124.4 µM
(GR)2 concentration (enzyme 10 μg/mL, 5 min): 138.9 µM
(GR)3 concentration (enzyme 10 μg/mL, 5 min): BLQ
(GR)4 concentration (enzyme 10 μg/mL, 5 min): BLQ
(GR)5 concentration (enzyme 10 μg/mL, 5 min): BLQ
(GR)6 concentration (enzyme 10 μg/mL, 5 min): BLQ
(GR)8 concentration (enzyme 10 μg/mL, 5 min): BLQ
(GR)10 concentration (enzyme 10 μg/mL, 5 min): 2.0 µM
(GR)1 concentration (enzyme 10 μg/mL, 10 min): 156.5 µM
(GR)2 concentration (enzyme 10 μg/mL, 10 min): 148.1 µM
(GR)3 concentration (enzyme 10 μg/mL, 10 min): BLQ
(GR)4 concentration (enzyme 10 μg/mL, 10 min): BLQ
(GR)5 concentration (enzyme 10 μg/mL, 10 min): BLQ
(GR)6 concentration (enzyme 10 μg/mL, 10 min): BLQ
(GR)8 concentration (enzyme 10 μg/mL, 10 min): BLQ
(GR)10 concentration (enzyme 10 μg/mL, 10 min): BLQ
(GR)1 concentration (enzyme 10 μg/mL, 30 min): 212.6 µM
(GR)2 concentration (enzyme 10 μg/mL, 30 min): 110.1 µM
(GR)3 concentration (enzyme 10 μg/mL, 30 min): BLQ
(GR)4 concentration (enzyme 10 μg/mL, 30 min): BLQ
(GR)5 concentration (enzyme 10 μg/mL, 30 min): BLQ
(GR)6 concentration (enzyme 10 μg/mL, 30 min): BLQ
(GR)8 concentration (enzyme 10 μg/mL, 30 min): BLQ
(GR)10 concentration (enzyme 10 μg/mL, 30 min): BLQ
(GR)1 concentration (enzyme 10 μg/mL, 60 min): 289.7 µM
(GR)2 concentration (enzyme 10 μg/mL, 60 min): 58.6 µM
(GR)3 concentration (enzyme 10 μg/mL, 60 min): BLQ
(GR)4 concentration (enzyme 10 μg/mL, 60 min): BLQ
(GR)5 concentration (enzyme 10 μg/mL, 60 min): BLQ
(GR)6 concentration (enzyme 10 μg/mL, 60 min): BLQ
(GR)8 concentration (enzyme 10 μg/mL, 60 min): BLQ
(GR)10 concentration (enzyme 10 μg/mL, 60 min): BLQ
(GR)1 concentration (enzyme 10 μg/mL, 120 min): 349.9 µM
(GR)2 concentration (enzyme 10 μg/mL, 120 min): 10.7 µM
(GR)3 concentration (enzyme 10 μg/mL, 120 min): BLQ
(GR)4 concentration (enzyme 10 μg/mL, 120 min): BLQ
(GR)5 concentration (enzyme 10 μg/mL, 120 min): BLQ
(GR)6 concentration (enzyme 10 μg/mL, 120 min): BLQ
(GR)8 concentration (enzyme 10 μg/mL, 120 min): BLQ
(GR)10 concentration (enzyme 10 μg/mL, 120 min): BLQ
(GR)1 (in solution - 5 min reaction): 178.0 µM
(GR)2 (in solution - 5 min reaction): 0.0 µM
(GR)3 (in solution - 5 min reaction): 0.0 µM
(GR)4 (in solution - 5 min reaction): 0.0 µM
(GR)5 (in solution - 5 min reaction): 0.0 µM
(GR)6 (in solution - 5 min reaction): 0.0 µM
(GR)8 (in solution - 5 min reaction): 0.0 µM
(GR)10 (in solution - 5 min reaction): 0.0 µM
(GR)1 (in solution - 60 min reaction): 321.4 µM
(GR)2 (in solution - 60 min reaction): 154.0 µM
(GR)3 (in solution - 60 min reaction): 0.0 µM
(GR)4 (in solution - 60 min reaction): 0.0 µM
(GR)5 (in solution - 60 min reaction): 0.0 µM
(GR)6 (in solution - 60 min reaction): 0.0 µM
(GR)8 (in solution - 60 min reaction): 0.0 µM
(GR)10 (in solution - 60 min reaction): 0.0 µM
B1: Trypsin: protease cleaving at the carboxyl side of lysine or arginine; in Table 21 also immobilized in-house on NHS-activated agarose resin (protein, UniProt P00760 24-246, looked up)
Serine protease 1: IVGGYTCGANTVPYQVSLNSGYHFCGGSLINSQWVVSAAHCYKSGIQVRLGEDNINVVEGNEQFISASKSIVHPSYNSNTLNNDIMLIKLKSAASLNSRVASISLPTSCASAGTQCLISGWGNTKSSGTSYPDVLKCLKAPILSDSSCKSAYPGQITSNMFCAGYLEGGKDSCQGDSGGPVVCSGKLQGIVSWGSGCAQKNKPGVYTKVCNYVSWIKQTIASN
